The test concerns the target T1, tim_drome tim (UniProt P49021).
T1 sequence: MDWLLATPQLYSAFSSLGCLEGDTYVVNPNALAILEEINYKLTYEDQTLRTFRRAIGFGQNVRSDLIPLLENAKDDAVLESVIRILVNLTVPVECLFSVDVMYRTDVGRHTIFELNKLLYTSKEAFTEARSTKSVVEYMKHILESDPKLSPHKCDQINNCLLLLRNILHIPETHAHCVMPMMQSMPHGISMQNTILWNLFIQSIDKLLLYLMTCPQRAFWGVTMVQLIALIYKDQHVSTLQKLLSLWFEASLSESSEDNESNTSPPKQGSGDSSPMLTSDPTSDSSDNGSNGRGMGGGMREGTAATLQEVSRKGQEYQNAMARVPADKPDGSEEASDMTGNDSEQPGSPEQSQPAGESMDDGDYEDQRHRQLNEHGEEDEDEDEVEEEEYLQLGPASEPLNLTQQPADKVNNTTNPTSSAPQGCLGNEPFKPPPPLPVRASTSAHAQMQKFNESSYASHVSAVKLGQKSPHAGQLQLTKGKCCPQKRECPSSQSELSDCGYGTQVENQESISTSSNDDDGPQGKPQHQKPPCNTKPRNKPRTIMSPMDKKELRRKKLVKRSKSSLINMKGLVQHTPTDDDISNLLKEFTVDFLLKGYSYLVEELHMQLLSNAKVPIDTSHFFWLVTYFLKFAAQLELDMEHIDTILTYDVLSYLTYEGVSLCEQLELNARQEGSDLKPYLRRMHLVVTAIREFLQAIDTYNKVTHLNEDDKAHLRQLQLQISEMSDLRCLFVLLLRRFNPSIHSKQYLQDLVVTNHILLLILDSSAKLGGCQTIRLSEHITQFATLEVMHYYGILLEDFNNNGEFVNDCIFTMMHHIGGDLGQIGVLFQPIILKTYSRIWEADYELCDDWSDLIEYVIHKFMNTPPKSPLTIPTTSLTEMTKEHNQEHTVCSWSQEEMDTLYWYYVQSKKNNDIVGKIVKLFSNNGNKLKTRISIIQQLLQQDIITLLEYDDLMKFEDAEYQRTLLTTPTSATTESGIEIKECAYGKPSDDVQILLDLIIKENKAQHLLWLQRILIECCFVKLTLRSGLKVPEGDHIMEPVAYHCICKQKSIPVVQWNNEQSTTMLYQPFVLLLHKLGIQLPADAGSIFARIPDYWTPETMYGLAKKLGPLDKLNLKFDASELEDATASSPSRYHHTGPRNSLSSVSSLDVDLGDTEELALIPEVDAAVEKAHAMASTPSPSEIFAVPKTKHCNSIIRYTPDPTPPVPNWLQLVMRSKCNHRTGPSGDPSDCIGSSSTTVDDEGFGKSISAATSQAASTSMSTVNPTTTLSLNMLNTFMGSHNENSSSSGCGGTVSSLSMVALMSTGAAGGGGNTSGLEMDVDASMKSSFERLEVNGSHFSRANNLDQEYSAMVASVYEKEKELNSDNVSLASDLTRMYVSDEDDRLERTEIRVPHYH

These results are taken from IntAct's records for PubMed 19402751.

Consider “Period circadian protein (Drosophila melanogaster (Fruit fly)) (from UniProt P07663-1) E474R;H492S;R494D”, for which the “effect of a mutation on the interaction” value is “disrupting interaction”.
